Key:
[1] = molecular target: T1, Kv1.1 (Homo sapiens, UniProt Q09470); assay: cell-based; assay type: cell-based; conditions: 100% = no change, <100% = inhibition
T1 construct: host or cells: HEK293 or CHO
Method in brief: (§1)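 Transfected HEK293 or CHO cells were exposed for at least 5 min to peptides at 200 nM and 20 μM final, tested in duplicate, in HEPES-buffered physiological saline. Activation was taken as peptide-plus-agonist current over control current ×100, and inhibition as 1 minus that ratio ×100. Each channel's control was its own reference compound.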

[2] = molecular target: T2, Kv1.3 (Homo sapiens, UniProt P22001); assay: cell-based; assay type: cell-based; conditions: 100% = no change, <100% = inhibition
T2 construct: host or cells: HEK293 or CHO
Method in brief: as §1

[3] = molecular target: T3, Kv1.2 (Homo sapiens, UniProt P16389); assay: cell-based; assay type: cell-based; conditions: 100% = no change, <100% = inhibition
T3 construct: host or cells: HEK293 or CHO
Method in brief: as §1

[4] = molecular target: T4, TRPA1 (Homo sapiens, UniProt O75762); assay: Ion channel panel (IonWorks Barracuda): TRPA1; assay type: cell-based; conditions: 100% = no change, <100% = inhibition
T4 construct: host or cells: HEK293 or CHO
Method in brief: as §1

[5] = molecular target: T5, α4β2 (Homo sapiens, UniProt P17787+P43681); assay: Ion channel panel (IonWorks Barracuda): α4β2; assay type: cell-based; conditions: 100% = no change, <100% = inhibition
T5 construct: host or cells: HEK293 or CHO
Method in brief: as §1

[6] = molecular target: hERG (Homo sapiens, UniProt Q12809); assay: in vitro; conditions: 100% = no change, <100% = inhibition
Method in brief: as §1

[7] = molecular target: Nav1.5 (Homo sapiens, UniProt Q14524); assay: in vitro; conditions: 100% = no change; for Activity of Nav1.5 with peptide, expressed as a percentage of the reference compound: peptide at 0.2 μM; for Activity of Nav1.5 with peptide (percentage of the reference compound): peptide at 20 μM
Sequence of Nav1.5 (Q14524 whole entry): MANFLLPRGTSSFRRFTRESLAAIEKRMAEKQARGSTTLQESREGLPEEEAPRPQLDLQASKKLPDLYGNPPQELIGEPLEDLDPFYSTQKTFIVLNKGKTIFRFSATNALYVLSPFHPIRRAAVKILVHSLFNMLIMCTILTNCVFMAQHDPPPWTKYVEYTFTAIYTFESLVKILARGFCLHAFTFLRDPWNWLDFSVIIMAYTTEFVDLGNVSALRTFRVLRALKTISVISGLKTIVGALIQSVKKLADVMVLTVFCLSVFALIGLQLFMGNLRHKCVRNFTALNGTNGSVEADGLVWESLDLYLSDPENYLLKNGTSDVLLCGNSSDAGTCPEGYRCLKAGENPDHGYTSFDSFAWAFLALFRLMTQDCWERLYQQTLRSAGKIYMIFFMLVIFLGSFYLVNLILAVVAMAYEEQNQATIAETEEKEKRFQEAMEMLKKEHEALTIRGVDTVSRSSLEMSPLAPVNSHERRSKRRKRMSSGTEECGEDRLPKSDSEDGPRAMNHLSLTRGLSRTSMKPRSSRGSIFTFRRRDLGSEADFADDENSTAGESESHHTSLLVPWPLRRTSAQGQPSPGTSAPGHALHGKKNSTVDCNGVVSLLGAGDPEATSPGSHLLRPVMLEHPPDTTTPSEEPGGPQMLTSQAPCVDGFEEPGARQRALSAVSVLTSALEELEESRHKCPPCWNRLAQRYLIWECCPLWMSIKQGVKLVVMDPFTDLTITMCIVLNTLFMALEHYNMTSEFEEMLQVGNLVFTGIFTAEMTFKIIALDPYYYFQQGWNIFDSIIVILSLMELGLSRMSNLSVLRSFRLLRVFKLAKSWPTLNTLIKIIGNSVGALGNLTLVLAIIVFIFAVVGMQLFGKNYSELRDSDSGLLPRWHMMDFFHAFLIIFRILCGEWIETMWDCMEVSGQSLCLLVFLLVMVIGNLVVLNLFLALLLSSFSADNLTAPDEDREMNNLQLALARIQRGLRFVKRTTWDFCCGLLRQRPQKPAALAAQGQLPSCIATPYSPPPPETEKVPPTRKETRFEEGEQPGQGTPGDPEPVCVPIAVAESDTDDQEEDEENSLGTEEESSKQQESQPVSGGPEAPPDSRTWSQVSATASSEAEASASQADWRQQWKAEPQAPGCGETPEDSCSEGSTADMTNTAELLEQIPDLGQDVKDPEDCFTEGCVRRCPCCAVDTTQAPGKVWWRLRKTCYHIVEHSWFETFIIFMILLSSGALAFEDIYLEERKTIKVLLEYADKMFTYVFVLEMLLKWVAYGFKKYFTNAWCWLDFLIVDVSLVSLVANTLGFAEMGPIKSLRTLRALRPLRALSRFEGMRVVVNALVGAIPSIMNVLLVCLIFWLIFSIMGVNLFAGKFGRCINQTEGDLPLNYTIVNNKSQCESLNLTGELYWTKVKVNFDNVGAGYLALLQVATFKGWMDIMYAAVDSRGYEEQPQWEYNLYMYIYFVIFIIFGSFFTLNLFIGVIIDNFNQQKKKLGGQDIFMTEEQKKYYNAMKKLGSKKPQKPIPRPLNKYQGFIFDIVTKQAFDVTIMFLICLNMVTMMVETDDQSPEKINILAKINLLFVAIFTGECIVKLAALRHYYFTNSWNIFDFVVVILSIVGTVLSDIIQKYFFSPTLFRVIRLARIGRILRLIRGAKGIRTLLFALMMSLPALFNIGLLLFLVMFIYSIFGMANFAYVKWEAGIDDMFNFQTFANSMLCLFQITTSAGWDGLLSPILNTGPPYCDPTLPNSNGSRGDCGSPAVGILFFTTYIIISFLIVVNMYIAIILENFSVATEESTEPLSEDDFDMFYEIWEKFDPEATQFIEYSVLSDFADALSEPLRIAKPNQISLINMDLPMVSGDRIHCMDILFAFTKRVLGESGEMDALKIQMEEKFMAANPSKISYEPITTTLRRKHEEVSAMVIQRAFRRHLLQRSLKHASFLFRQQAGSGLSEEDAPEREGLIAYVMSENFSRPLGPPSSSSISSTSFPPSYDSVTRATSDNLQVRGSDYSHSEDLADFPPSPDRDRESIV
Method in brief: as §1

[8] = molecular target: T6, Kv2.1 (Homo sapiens, UniProt Q14721); assay: cell-based; conditions: 100% = no change, <100% = inhibition
T6 construct: host or cells: HEK293 or CHO
Method in brief: as §1

[9] = molecular target: T7, Cav2.1 (Homo sapiens, UniProt O00555); assay: cell-based; conditions: 100% = no change, <100% = inhibition
T7 construct: host or cells: HEK293 or CHO
Method in brief: as §1

[10] = molecular target: T8, Cav2.2 (Homo sapiens, UniProt Q00975); assay: cell-based; conditions: 100% = no change, <100% = inhibition
T8 construct: host or cells: HEK293 or CHO
Method in brief: as §1

[11] = molecular target: T9, TRPV1 (Homo sapiens, UniProt Q8NER1); assay: Ion channel panel (IonWorks Barracuda): TRPV1; assay type: cell-based; conditions: 100% = no change, <100% = inhibition
T9 construct: host or cells: HEK293 or CHO
T9 sequence (Q8NER1 whole entry): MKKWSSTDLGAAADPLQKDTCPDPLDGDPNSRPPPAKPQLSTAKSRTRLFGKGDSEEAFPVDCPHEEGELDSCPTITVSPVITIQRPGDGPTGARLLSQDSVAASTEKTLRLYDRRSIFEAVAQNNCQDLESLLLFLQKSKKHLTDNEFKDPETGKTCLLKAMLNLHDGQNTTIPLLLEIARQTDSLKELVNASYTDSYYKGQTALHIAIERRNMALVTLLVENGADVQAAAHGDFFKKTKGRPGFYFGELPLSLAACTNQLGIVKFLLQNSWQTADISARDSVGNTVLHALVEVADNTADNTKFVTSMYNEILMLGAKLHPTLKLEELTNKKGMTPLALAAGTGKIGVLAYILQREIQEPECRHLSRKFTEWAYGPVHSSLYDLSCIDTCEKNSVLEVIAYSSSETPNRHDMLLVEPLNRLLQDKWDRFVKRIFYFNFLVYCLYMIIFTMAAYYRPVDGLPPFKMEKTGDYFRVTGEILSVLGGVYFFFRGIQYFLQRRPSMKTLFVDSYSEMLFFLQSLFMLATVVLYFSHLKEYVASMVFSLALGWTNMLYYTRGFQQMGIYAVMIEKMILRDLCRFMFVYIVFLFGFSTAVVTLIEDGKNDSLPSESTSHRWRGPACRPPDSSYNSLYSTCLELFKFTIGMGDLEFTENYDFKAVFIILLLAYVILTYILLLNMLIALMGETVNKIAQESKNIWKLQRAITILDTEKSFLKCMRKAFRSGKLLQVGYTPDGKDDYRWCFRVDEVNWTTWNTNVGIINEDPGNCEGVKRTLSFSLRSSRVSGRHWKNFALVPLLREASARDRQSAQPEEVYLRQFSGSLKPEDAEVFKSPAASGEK
Method in brief: as §1

[12] = molecular target: T10, 5HT3a (Homo sapiens, UniProt P46098); assay: Ion channel panel (IonWorks Barracuda): 5HT3a; assay type: cell-based
T10 construct: host or cells: HEK293 or CHO
T10 sequence (P46098 whole entry, looked up): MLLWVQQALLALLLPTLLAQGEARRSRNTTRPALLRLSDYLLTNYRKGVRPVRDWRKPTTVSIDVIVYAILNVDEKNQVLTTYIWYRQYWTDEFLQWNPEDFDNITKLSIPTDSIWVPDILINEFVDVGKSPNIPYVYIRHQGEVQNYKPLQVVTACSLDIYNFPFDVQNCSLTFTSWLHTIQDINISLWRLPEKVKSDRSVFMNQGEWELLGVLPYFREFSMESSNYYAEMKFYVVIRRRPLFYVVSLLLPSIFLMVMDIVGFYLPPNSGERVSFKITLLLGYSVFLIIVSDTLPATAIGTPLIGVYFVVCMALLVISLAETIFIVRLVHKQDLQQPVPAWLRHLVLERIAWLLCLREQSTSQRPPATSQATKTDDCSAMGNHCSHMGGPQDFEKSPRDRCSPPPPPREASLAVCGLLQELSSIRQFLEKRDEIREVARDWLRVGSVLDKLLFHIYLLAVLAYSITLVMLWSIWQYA
Method in brief: as §1

[13] = molecular target: T11, Nav1.7 (Homo sapiens, UniProt Q15858); assay: cell-based; assay type: cell-based; conditions: 100% = no change; for Activity of Nav1.7 with peptide, expressed as a percentage of the reference compound: peptide at 0.2 μM; for Activity of Nav1.7 with peptide (percentage of the reference compound): peptide at 20 μM
T11 construct: host or cells: HEK293 or CHO
T11 sequence (Q15858 whole entry): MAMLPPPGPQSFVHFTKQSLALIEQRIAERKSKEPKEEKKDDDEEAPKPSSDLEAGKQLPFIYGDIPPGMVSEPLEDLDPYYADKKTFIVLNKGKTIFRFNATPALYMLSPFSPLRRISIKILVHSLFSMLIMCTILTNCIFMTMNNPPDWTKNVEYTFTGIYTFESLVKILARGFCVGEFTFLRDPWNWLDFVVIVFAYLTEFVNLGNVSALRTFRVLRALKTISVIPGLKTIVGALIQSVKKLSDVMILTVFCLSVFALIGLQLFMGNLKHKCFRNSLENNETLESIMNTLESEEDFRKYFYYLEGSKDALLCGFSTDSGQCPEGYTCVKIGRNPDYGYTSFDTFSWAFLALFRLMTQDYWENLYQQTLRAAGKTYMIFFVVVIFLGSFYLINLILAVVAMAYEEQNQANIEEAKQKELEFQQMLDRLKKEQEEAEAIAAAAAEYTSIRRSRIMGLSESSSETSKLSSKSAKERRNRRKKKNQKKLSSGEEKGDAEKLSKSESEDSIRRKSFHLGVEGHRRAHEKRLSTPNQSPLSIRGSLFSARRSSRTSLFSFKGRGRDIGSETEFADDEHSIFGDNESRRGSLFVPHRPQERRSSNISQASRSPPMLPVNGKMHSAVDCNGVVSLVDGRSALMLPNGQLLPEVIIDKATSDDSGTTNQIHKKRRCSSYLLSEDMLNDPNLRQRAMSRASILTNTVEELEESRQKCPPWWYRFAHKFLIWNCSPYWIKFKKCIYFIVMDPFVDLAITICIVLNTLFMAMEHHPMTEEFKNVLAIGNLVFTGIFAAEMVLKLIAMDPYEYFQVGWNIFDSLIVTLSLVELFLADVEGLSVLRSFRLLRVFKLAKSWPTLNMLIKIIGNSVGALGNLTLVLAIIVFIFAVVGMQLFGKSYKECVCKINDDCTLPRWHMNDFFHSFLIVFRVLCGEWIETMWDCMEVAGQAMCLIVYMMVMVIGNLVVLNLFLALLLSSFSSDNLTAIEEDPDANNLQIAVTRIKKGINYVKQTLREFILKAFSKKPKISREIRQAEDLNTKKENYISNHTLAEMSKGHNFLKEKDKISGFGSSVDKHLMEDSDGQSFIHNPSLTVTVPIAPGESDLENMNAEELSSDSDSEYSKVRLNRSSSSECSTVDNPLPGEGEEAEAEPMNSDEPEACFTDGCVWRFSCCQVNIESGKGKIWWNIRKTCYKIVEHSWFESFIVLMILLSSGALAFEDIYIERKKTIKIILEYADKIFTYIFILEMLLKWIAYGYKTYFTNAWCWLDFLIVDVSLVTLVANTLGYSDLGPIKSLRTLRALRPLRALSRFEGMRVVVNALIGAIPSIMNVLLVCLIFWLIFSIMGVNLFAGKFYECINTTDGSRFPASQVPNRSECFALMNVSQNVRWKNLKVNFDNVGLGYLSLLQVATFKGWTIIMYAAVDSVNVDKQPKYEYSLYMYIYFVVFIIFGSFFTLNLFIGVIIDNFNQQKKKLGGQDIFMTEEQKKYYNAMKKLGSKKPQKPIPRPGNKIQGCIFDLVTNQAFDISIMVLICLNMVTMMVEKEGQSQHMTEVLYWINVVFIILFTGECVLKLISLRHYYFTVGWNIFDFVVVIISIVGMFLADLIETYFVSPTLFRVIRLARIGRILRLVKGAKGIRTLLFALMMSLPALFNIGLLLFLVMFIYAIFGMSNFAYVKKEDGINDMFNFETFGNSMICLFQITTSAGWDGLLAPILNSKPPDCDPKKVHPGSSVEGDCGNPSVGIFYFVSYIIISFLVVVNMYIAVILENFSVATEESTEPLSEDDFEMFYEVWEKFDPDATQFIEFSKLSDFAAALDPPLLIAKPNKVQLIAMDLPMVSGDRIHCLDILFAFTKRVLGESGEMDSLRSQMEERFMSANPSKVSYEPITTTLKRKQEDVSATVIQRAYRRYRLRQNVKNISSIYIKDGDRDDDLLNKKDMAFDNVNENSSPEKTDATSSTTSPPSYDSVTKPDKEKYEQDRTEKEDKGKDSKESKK

[14] = molecular target: T12, Kir2.1 (Homo sapiens, UniProt P63252); assay: Ion channel panel (IonWorks Barracuda): Kir2.1; assay type: cell-based; conditions: 100% = no change, <100% = inhibition
T12 construct: host or cells: HEK293 or CHO
Method in brief: as §1

[15] = molecular target: T13, α3β4 (Homo sapiens, UniProt P30926+P32297); assay: Ion channel panel (IonWorks Barracuda): α3β4; assay type: cell-based; conditions: 100% = no change, <100% = inhibition
T13 construct: host or cells: HEK293 or CHO
Method in brief: as §1

[16] = molecular target: T14, NR2A (Homo sapiens, UniProt Q12879); assay: Ion channel panel (IonWorks Barracuda): NR2A; assay type: cell-based; conditions: 100% = no change, <100% = inhibition
T14 construct: host or cells: HEK293 or CHO
Method in brief: as §1

[17] = molecular target: T15, NR2B (Homo sapiens, UniProt Q13224); assay: Ion channel panel (IonWorks Barracuda): NR2B; assay type: cell-based; conditions: 100% = no change, <100% = inhibition
T15 construct: host or cells: HEK293 or CHO
Method in brief: as §1

[18] = system: GABA; assay: Ion channel panel (IonWorks Barracuda): GABA; assay type: cell-based; conditions: 100% = no change, <100% = inhibition
Method in brief: as §1

[19] = first of two Nav1.5 columns (probably TP1)
[20] = second of two Nav1.5 columns (probably TP2)
[21] = first of two Nav1.7 columns (probably TP1)
[22] = second of two Nav1.7 columns (probably TP2)

Substance: 34 (GGYSRCQLQGFNCVVRSYGLPTIPCCRGLTCRSYFPGSTYGRCQRY) [compound 34]
- Activity of Kv1.1 with peptide, expressed as a percentage of the reference compound ([1]; peptide at 0.2 μM): 109%
- Activity of Kv1.1 with peptide (percentage of the reference compound) ([1]; peptide at 20 μM): 111%
- Activity of Kv1.3 with peptide, expressed as a percentage of the reference compound ([2]; peptide at 0.2 μM): 108%
- Activity of Kv1.3 with peptide (percentage of the reference compound) ([2]; peptide at 20 μM): 100%
- Activity of Kv1.2 with peptide, expressed as a percentage of the reference compound ([3]; peptide at 0.2 μM): 96%
- Activity of Kv1.2 with peptide (percentage of the reference compound) ([3]; peptide at 20 μM): 51%
- Activity of TRPA1 with peptide, expressed as a percentage of the reference compound ([4]; peptide at 0.2 μM): 91%
- Activity of TRPA1 with peptide (percentage of the reference compound) ([4]; peptide at 20 μM): 97%
- Activity of a4b2 with peptide, expressed as a percentage of the reference compound ([5]; peptide at 0.2 μM): 81%
- Activity of a4b2 with peptide (percentage of the reference compound) ([5]; peptide at 20 μM): 51%
- Activity of hERG with peptide, expressed as a percentage of the reference compound ([6]; peptide at 0.2 μM): 84%
- Activity of hERG with peptide (percentage of the reference compound) ([6]; peptide at 20 μM): 66%
- Activity of Nav1.5 with peptide, expressed as a percentage of the reference compound [7, 19]: 111%
- Activity of Nav1.5 with peptide, expressed as a percentage of the reference compound [7, 20]: 113%
- Activity of Nav1.5 with peptide (percentage of the reference compound) [7, 19]: 101%
- Activity of Nav1.5 with peptide (percentage of the reference compound) [7, 20]: 101%
- Activity of Kv2.1 with peptide, expressed as a percentage of the reference compound ([8]; peptide at 0.2 μM): 98%
- Activity of Kv2.1 with peptide (percentage of the reference compound) ([8]; peptide at 20 μM): 97%
- Activity of Cav2.1 with peptide, expressed as a percentage of the reference compound ([9]; peptide at 0.2 μM): 86%
- Activity of Cav2.1 with peptide (percentage of the reference compound) ([9]; peptide at 20 μM): 111%
- Activity of Cav2.2 with peptide, expressed as a percentage of the reference compound ([10]; peptide at 0.2 μM): 130%
- Activity of Cav2.2 with peptide (percentage of the reference compound) ([10]; peptide at 20 μM): 94%
- Activity of TRPV1 with peptide, expressed as a percentage of the reference compound ([11]; peptide at 0.2 μM): 110%
- Activity of TRPV1 with peptide (percentage of the reference compound) ([11]; peptide at 20 μM): 71%
- Activity of 5HT3a with peptide (percentage of the reference compound) [12]: 97%
- Activity of 5HT3a with peptide, expressed as a percentage of the reference compound [12]: 114%
- Activity of Nav1.7 with peptide, expressed as a percentage of the reference compound [13, 21]: 102%
- Activity of Nav1.7 with peptide, expressed as a percentage of the reference compound [13, 22]: 104%
- Activity of Nav1.7 with peptide (percentage of the reference compound) [13, 21]: 86%
- Activity of Nav1.7 with peptide (percentage of the reference compound) [13, 22]: 80%
- Activity of Kir2.1 with peptide, expressed as a percentage of the reference compound ([14]; peptide at 0.2 μM): 97%
- Activity of Kir2.1 with peptide (percentage of the reference compound) ([14]; peptide at 20 μM): 50%
- Activity of a3b4 with peptide, expressed as a percentage of the reference compound ([15]; peptide at 0.2 μM): 103%
- Activity of a3b4 with peptide (percentage of the reference compound) ([15]; peptide at 20 μM): 97%
- Activity of NR2A with peptide, expressed as a percentage of the reference compound ([16]; peptide at 0.2 μM): 112%
- Activity of NR2A with peptide (percentage of the reference compound) ([16]; peptide at 20 μM): 77%
- Activity of NR2B with peptide, expressed as a percentage of the reference compound ([17]; peptide at 0.2 μM): 127%
- Activity of NR2B with peptide (percentage of the reference compound) ([17]; peptide at 20 μM): 66%
- Activity of GABA with peptide, expressed as a percentage of the reference compound ([18]; peptide at 0.2 μM): 107%
- Activity of GABA with peptide (percentage of the reference compound) ([18]; peptide at 20 μM): 117%

Source: US20200262877A1, “ION CHANNEL-BINDING PEPTIDES AND METHODS OF USE THEREOF” (priority 2017, published 2020)
